Source: patent US20230151091A1 (NEW YORK UNIVERSITY, published 2023)

How the values were obtained:
[1] = target: T1, mouse MuSK, endogenous (C2C12 myotubes; neuromuscular synapses of mice) (mouse, UniProt Q61006 22-868); assay: cell-based or functional assay
T1 sequence (looked up): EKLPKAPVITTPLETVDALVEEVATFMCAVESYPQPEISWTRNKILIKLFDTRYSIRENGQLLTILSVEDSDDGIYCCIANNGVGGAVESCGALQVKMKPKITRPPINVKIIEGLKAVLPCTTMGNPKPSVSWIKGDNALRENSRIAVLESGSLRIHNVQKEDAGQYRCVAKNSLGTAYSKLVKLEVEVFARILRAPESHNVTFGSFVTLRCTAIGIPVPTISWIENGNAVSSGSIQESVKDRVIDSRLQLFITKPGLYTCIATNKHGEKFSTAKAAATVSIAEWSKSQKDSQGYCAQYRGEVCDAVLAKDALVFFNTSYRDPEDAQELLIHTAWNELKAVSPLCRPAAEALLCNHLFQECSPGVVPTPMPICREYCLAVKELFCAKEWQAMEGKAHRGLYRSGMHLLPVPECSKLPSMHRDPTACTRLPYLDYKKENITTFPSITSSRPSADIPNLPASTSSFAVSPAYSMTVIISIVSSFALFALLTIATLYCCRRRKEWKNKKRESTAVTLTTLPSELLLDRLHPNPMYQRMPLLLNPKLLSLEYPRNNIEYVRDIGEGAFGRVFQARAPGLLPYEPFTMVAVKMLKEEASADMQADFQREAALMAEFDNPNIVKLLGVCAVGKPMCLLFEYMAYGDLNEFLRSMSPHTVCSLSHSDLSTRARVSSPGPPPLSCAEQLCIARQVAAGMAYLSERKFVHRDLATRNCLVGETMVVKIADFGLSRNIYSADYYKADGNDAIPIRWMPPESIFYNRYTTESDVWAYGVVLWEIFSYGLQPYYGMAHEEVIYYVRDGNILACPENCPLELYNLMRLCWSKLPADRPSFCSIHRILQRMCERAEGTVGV

[2] = target: T2, cynomolgus monkey MuSK (cynomolgus monkey, UniProt A0A2K5USF6 24-487); assay: Biacore, MuSK on chip, association pH 7.4, dissociation pH 5.5
T2 sequence (A0A2K5USF6 entry or part of it): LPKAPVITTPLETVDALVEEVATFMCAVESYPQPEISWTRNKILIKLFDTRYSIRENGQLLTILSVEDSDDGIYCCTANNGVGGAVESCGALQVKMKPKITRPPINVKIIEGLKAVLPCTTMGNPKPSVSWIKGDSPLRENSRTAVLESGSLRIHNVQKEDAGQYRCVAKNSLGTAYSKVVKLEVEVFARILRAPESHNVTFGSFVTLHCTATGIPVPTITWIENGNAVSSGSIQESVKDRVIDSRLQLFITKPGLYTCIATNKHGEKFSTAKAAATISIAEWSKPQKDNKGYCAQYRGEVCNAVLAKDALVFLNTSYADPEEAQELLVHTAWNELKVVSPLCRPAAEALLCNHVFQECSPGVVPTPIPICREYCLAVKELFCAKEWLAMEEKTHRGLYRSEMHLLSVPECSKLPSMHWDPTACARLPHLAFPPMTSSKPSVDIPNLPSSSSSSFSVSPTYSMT
Summary of the method: (§1)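 MuSK was immobilized on the sensor chip at 200 RU, and antibody was injected at 66.7 nM. Association ran at pH 7.4 and dissociation at pH 5.5, and kinetic parameters were calculated from the sensorgrams.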

[3] = target: T3, mouse MuSK (mouse, UniProt Q61006 22-494, limits assumed); assay: as above
T3 construct: Coated on ELISA plates or on the Biacore chip; also called full length mouse MuSK; mouse MuSK (in house produced in HEK293 cells)
T3 sequence (looked up): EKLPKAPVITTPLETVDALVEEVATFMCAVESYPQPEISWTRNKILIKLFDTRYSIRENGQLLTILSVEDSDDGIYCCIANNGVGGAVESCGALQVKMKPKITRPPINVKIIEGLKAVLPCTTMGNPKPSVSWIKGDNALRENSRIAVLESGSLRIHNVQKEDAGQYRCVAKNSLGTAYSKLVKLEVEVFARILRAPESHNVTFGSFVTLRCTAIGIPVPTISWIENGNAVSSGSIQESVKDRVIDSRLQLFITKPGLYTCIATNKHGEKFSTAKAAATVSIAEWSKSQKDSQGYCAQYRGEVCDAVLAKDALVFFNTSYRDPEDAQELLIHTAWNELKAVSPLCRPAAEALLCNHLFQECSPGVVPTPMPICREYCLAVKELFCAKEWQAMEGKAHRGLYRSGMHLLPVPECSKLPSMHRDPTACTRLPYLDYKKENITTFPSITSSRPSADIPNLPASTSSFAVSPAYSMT
Summary of the method: as §1

[4] = target: T4, rat MuSK (rat, UniProt Q62838 22-494, limits assumed); assay: as above
T4 construct: Coated on Biacore chip (200RU) or ELISA plate
T4 sequence (looked up): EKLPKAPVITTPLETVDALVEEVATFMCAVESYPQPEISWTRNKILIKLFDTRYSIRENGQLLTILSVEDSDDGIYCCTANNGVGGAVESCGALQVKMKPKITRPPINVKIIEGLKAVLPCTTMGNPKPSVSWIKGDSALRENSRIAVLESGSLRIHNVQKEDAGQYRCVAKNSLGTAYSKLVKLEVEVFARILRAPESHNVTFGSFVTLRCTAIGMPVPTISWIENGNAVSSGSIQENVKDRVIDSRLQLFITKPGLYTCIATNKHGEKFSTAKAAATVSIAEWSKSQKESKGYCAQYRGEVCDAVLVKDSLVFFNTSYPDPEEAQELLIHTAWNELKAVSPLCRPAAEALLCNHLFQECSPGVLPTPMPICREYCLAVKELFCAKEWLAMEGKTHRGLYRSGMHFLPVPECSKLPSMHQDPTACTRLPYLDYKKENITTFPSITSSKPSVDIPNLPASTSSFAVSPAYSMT
Summary of the method: as §1

[5] = target: T2, cynomolgus monkey MuSK; assay: Biacore, MuSK on chip (200RU), 66.7 nM mAb, dissociation pH 7.4
Summary of the method: (§2)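 Sensor chip coated in parallel with cynomolgus monkey, rat and mouse MuSK. Antibody applied at a single concentration; association and dissociation kinetic parameters calculated from the sensorgrams.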

[6] = target: T3, mouse MuSK; assay: as above
Summary of the method: as §2

[7] = target: T4, rat MuSK; assay: as above
Summary of the method: as §2

[8] = target: T3, mouse MuSK; assay: Biacore, MuSK on chip, association pH 7.4, dissociation pH 5.5; association at pH 7.4, dissociation at pH 5.5
Protocol: For affinity determination, a CMS chip was coated with cynomolgus monkey, rat and mouse MuSK (200RU) and 66.7 nM of antibody was applied and kinetic parameters calculated (Table 8). The following conclusions could be drawn: (1) 3B2g1m3 and 3B2g2m3 (m3 variants) show significant drop in affinity for MuSK for all species tested; (2) 3B2g1m2 and 3B2g2m2 (m2 variants) show some drop in affinity for MuSK; (3) 3B2g1m1, 3B2g2m1, 3B2g1m4, 3B2g2m4 (ml and m4 variants) show no drop in affinity for MuSK for all species tested; and (4) for all clones there is no difference between g1 and g2 variants (VL methionine versus serine in CDR3).
In order to study pH dependent binding of our antibodies to MuSK, the same Biacore was used as above, but now dissociation was done at pH 5.5 instead of pH 7.4. […] The following conclusions could be drawn for the different variants: (1) 3B2g1m3 and 3B2g2m3 (m3 variants) show significant drop in affinity for MuSK for all species tested; (2) 3B2g1m2 and 3B2g2m2 (m2 variants) show some drop in affinity for MuSK; (3) 3B2g1m1, 3B2g2m1, 3B2g1m4, 3B2g2m4 (m1 and m4 variants) show no drop in affinity for MuSK for all species tested; and (4) for all clones there is no difference between g1 and g2 variants (VL methionine versus serine in CDR3).

B1: 3B2g1m2 (antibody, human IgG1, V domains shown)
VH: EVQLLESGGGLVQPGGSLRLSCAASGFTFSDYGMSWVRQAPGKGLEWVSAIPGSGGSTYYKESVKGRFTISRDNSKNTLYLQMNSLRAEDTAVYYCAKRSGRIAFGALDAWGQGTLVTVSS
VL: QTVVTQEPSFSVSPGGTVTLTCGLSSGSVTSSNYPDWYQQTPGQAPRTLIYSTDSRHSGVPDRFSGSILGNKAALTITGAQADDESDYYCGLYMYSGSKNYVFGGGTKLTVL
notes: human IgG1-LALA backbone; produced in HEK293 cells
In the case of B1, the “MuSK phosphorylation in C2C12 myotubes” value [1] is reported as ~80 % of 1 nM agrin, the R0 [2] is reported as 148 RU and the koff [2] is reported as 0.0034 s⁻¹. It also gave a kon [2] of 800000 M⁻¹ s⁻¹, an R0 [3] of 152 RU and a kon [3] of 70000 M⁻¹ s⁻¹. It also gave an R0 [4] of 136 RU, a koff [4] of 0.0865 s⁻¹ and a kon [4] of 40000 M⁻¹ s⁻¹. For the same binder, the R0 [5] was 133 RU, the koff [5] was 0.00183 s⁻¹ and the kon [5] was 850000 M⁻¹ s⁻¹. It also gave an R0 [6] of 155 RU, a koff [6] of 0.00253 s⁻¹ and a kon [6] of 1.61e+06 M⁻¹ s⁻¹. It also gave an R0 [7] of 125 RU, a koff [7] of 0.00314 s⁻¹ and a kon [7] of 1.45e+06 M⁻¹ s⁻¹. For the same binder, the koff [8] was 0.00915 s⁻¹.
